Where a chain is given by its changes, count along the chain named. Names may count otherwise.
B1: inositol-requiring enzyme-1 (IRE1), wild type, expressed from plasmid in HEK293T cells (protein)
chain: IFGSTSTVTLPETLLFVSTLDGSLHAVSKRTGSIKWTLKEDPVLQVPTHVEEPAFLPDPNDGSLYTLGSKNNEGLTKLPFTIPELVQASPCRSSDGILYMGKKQDIWYVIDLLTGEKQQTLSSAFADSLCPSTSLLYLGRTEYTITMYDTKTRELRWNATYFDYAASLPEDDVDYKMSHFVSNGDGLVVTVDSESGDVLWIQNYASPVVAFYVWQREGLRKVMHINVAVETLRYLTFMSGEVGRITKWKYPFPKETEAKSKLTPTLYVGKYSTSLYASPSMVHEGVAVVPRGSTLPLLEGPQTDGVTIGDKGECVITPSTDVKFDPGLKSKNKLNYLRNYWLLIGHHETPLSASTKMLERFPNNLPKHRENVIPADSEKKSFEEVINLVDQTSENAPTTVSRDVEEKPAHAPARPEAPVDSMLKDMATIILSTFLLIGWVAFIITYPLSMHQQQQLQHQQFQKELEKIQLLQQQQQQLPFHPPGDTAQDGELLDTSGPYSESSGTSSPSTSPRASNHSLCSGSSASKAGSSPSLEQDDGDEETSVVIVGKISFCPKDVLGHGAEGTIVYRGMFDNRDVAVKRILPECFSFADREVQLLRESDEHPNVIRYFCTEKDRQFQYIAIELCAATLQEYVEQKDFAHLGLEPITLLQQTTSGLAHLHSLNIVHRDLKPHNILISMPNAHGKIKAMISDFGLCKKLAVGRHSFSRRSGVPGTEGWIAPEMLSEDCKENPTYTVDIFSAGCVFYYVISEGSHPFGKSLQRQANILLGACSLDCLHPEKHEDVIARELIEKMIAMDPQKRPSAKHVLKHPFFWSLEKQLQFFQDVSDRIEKESLDGPIVKQLERGGRAVVKMDWRENITVPLQTDLRKFRTYKGGSVRDLLRAMRNKKHHYRELPAEVRETLGSLPDDFVCYFTSRFPHLLAHTYRAMELCSHERLFQPYYFHEPPEPQPPVTPDAL
B2: kinase dead (KD) mutant IRE1 (K599A), expressed from plasmid in HEK293T cells (protein)
chain: B1 chain with K581A
B3: purified, recombinant human IRE1-kinase/RNase domains (amino acids 468-977) (protein)
chain: MHQQQQLQHQQFQKELEKIQLLQQQQQQLPFHPPGDTAQDGELLDTSGPYSESSGTSSPSTSPRASNHSLCSGSSASKAGSSPSLEQDDGDEETSVVIVGKISFCPKDVLGHGAEGTIVYRGMFDNRDVAVKRILPECFSFADREVQLLRESDEHPNVIRYFCTEKDRQFQYIAIELCAATLQEYVEQKDFAHLGLEPITLLQQTTSGLAHLHSLNIVHRDLKPHNILISMPNAHGKIKAMISDFGLCKKLAVGRHSFSRRSGVPGTEGWIAPEMLSEDCKENPTYTVDIFSAGCVFYYVISEGSHPFGKSLQRQANILLGACSLDCLHPEKHEDVIARELIEKMIAMDPQKRPSAKHVLKHPFFWSLEKQLQFFQDVSDRIEKESLDGPIVKQLERGGRAVVKMDWRENITVPLQTDLRKFRTYKGGSVRDLLRAMRNKKHHYRELPAEVRETLGSLPDDFVCYFTSRFPHLLAHTYRAMELCSHERLFQPYYFHEPPEPQPPVTPDAL

Target: purified, recombinant human FMRP protein

| Protein | thio-phosphorylation in an in vitro kinase reaction (ATP-γ-S; western blot with anti-thiophosphate ester antibody) | IRE1-induced phosphorylation sites on FMRP (LC-MS/MS) | phosphorylation in an in vitro kinase reaction of purified proteins (western blot for ThioP; LC-MS/MS) |
| --- | --- | --- | --- |
| B1 | In the reaction containing IRE1-WT, both proteins were thio-phosphorylated | – | – |
| B2 | but not in the reaction containing the IRE1-KD mutant | – | – |
| B3 | – | eight IRE1-induced phosphorylation sites on FMRP at serine (S362, S494, S497, S500, S504) and threonine (T502, T592, T594) | Both IRE1 and FMRP were phosphorylated in this reaction in an AMG-18-sensitive manner |

Reference: patent publication US20250134889
